Measured values: publication PMC6854716, “Redesigning N-glycosylation sites in a GH3 β-xylosidase improves the enzymatic efficiency” (Biotechnology for Biofuels, 2019)

B1: BxlB (GH3 β-xylosidase): BxlBN7 (protein)
parent chain: MAVFKSWNLALLSSLFIPALCQSNYPDCTTGPLSELPICDTSLSPLERAKSLVSALTLEEKINNTGHEAAGSSRLGLPAYNWWNEALHGVAEKHGVSFEESGDFSYATSFPAPIVLGAAFNDALIRRVAEIISTEARAFSNSDHAGIDYWTPNVNPFKDPRWGRGQETPGEDPLHCSRYVKEFVGGLQGDDPEKPKVVATCKHLAAYDLEEWGGVSRFEFDAKVSAVDLLEYYLPPFKTCAVDASVGAFMCSYNALNGVPACADRYLLQTVLREHWGWEGPGHWVTGDCGAVERIQTYHHYVESGPEAAAAALNAGVDLDCGTWLPSYLGEAERQGLISNETLDAALTRLYTSLVQLGYFDPAEGQPLRSLGWDDVATSEAEELAKTVAIQGTVLLKNIDWTLPLKANGTLALIGPFINFTTELQSNYAGPAKHIPTMIEAAERLGYNVLTAPGTEVNSTSTDGFDDALAIAAEADALIFFGGIDNTVEEESLDRTRIDWPGNQEELILELAELGRPLTVVQFGGGQVDDSALLASAGVGAIVWAGYPSQAGGAGVFDVLTGKAAPAGRLPITQYPKSYVDEVPMTDMNLQPGTDNPGRTYRWYEDAVLPFGFGLHYTTFNVSWAKKAFGPYDAATLARGKNPSSNIVDTFSLAVTNTGDVASDYVALVFASAPELGAQPAPIKTLVGYSRASLIKPGETRKVDVEVTVAPLTRATEDGRVVLYPGEYTLLVDVNDEYPTAKFEIKGDVQVLEKFPLSGNDSD
B2: BxlB (GH3 β-xylosidase): BxlBN5;7 (protein)
parent chain: MAVFKSWNLALLSSLFIPALCQSNYPDCTTGPLSELPICDTSLSPLERAKSLVSALTLEEKINNTGHEAAGSSRLGLPAYNWWNEALHGVAEKHGVSFEESGDFSYATSFPAPIVLGAAFNDALIRRVAEIISTEARAFSNSDHAGIDYWTPNVNPFKDPRWGRGQETPGEDPLHCSRYVKEFVGGLQGDDPEKPKVVATCKHLAAYDLEEWGGVSRFEFDAKVSAVDLLEYYLPPFKTCAVDASVGAFMCSYNALNGVPACADRYLLQTVLREHWGWEGPGHWVTGDCGAVERIQTYHHYVESGPEAAAAALNAGVDLDCGTWLPSYLGEAERQGLISNETLDAALTRLYTSLVQLGYFDPAEGQPLRSLGWDDVATSEAEELAKTVAIQGTVLLKNIDWTLPLKANGTLALIGPFINFTTELQSNYAGPAKHIPTMIEAAERLGYNVLTAPGTEVNSTSTDGFDDALAIAAEADALIFFGGIDNTVEEESLDRTRIDWPGNQEELILELAELGRPLTVVQFGGGQVDDSALLASAGVGAIVWAGYPSQAGGAGVFDVLTGKAAPAGRLPITQYPKSYVDEVPMTDMNLQPGTDNPGRTYRWYEDAVLPFGFGLHYTTFNVSWAKKAFGPYDAATLARGKNPSSNIVDTFSLAVTNTGDVASDYVALVFASAPELGAQPAPIKTLVGYSRASLIKPGETRKVDVEVTVAPLTRATEDGRVVLYPGEYTLLVDVNDEYPTAKFEIKGDVQVLEKFPLSGNDSD
B3: BxlB (GH3 β-xylosidase): BxlBN1;5 (protein)
parent chain: MAVFKSWNLALLSSLFIPALCQSNYPDCTTGPLSELPICDTSLSPLERAKSLVSALTLEEKINNTGHEAAGSSRLGLPAYNWWNEALHGVAEKHGVSFEESGDFSYATSFPAPIVLGAAFNDALIRRVAEIISTEARAFSNSDHAGIDYWTPNVNPFKDPRWGRGQETPGEDPLHCSRYVKEFVGGLQGDDPEKPKVVATCKHLAAYDLEEWGGVSRFEFDAKVSAVDLLEYYLPPFKTCAVDASVGAFMCSYNALNGVPACADRYLLQTVLREHWGWEGPGHWVTGDCGAVERIQTYHHYVESGPEAAAAALNAGVDLDCGTWLPSYLGEAERQGLISNETLDAALTRLYTSLVQLGYFDPAEGQPLRSLGWDDVATSEAEELAKTVAIQGTVLLKNIDWTLPLKANGTLALIGPFINFTTELQSNYAGPAKHIPTMIEAAERLGYNVLTAPGTEVNSTSTDGFDDALAIAAEADALIFFGGIDNTVEEESLDRTRIDWPGNQEELILELAELGRPLTVVQFGGGQVDDSALLASAGVGAIVWAGYPSQAGGAGVFDVLTGKAAPAGRLPITQYPKSYVDEVPMTDMNLQPGTDNPGRTYRWYEDAVLPFGFGLHYTTFNVSWAKKAFGPYDAATLARGKNPSSNIVDTFSLAVTNTGDVASDYVALVFASAPELGAQPAPIKTLVGYSRASLIKPGETRKVDVEVTVAPLTRATEDGRVVLYPGEYTLLVDVNDEYPTAKFEIKGDVQVLEKFPLSGNDSD
B4: BxlB (GH3 β-xylosidase): BxlBN1;7 (protein)
parent chain: MAVFKSWNLALLSSLFIPALCQSNYPDCTTGPLSELPICDTSLSPLERAKSLVSALTLEEKINNTGHEAAGSSRLGLPAYNWWNEALHGVAEKHGVSFEESGDFSYATSFPAPIVLGAAFNDALIRRVAEIISTEARAFSNSDHAGIDYWTPNVNPFKDPRWGRGQETPGEDPLHCSRYVKEFVGGLQGDDPEKPKVVATCKHLAAYDLEEWGGVSRFEFDAKVSAVDLLEYYLPPFKTCAVDASVGAFMCSYNALNGVPACADRYLLQTVLREHWGWEGPGHWVTGDCGAVERIQTYHHYVESGPEAAAAALNAGVDLDCGTWLPSYLGEAERQGLISNETLDAALTRLYTSLVQLGYFDPAEGQPLRSLGWDDVATSEAEELAKTVAIQGTVLLKNIDWTLPLKANGTLALIGPFINFTTELQSNYAGPAKHIPTMIEAAERLGYNVLTAPGTEVNSTSTDGFDDALAIAAEADALIFFGGIDNTVEEESLDRTRIDWPGNQEELILELAELGRPLTVVQFGGGQVDDSALLASAGVGAIVWAGYPSQAGGAGVFDVLTGKAAPAGRLPITQYPKSYVDEVPMTDMNLQPGTDNPGRTYRWYEDAVLPFGFGLHYTTFNVSWAKKAFGPYDAATLARGKNPSSNIVDTFSLAVTNTGDVASDYVALVFASAPELGAQPAPIKTLVGYSRASLIKPGETRKVDVEVTVAPLTRATEDGRVVLYPGEYTLLVDVNDEYPTAKFEIKGDVQVLEKFPLSGNDSD
B5: BxlB (GH3 β-xylosidase): BxlBnon-glyc (protein)
parent chain: MAVFKSWNLALLSSLFIPALCQSNYPDCTTGPLSELPICDTSLSPLERAKSLVSALTLEEKINNTGHEAAGSSRLGLPAYNWWNEALHGVAEKHGVSFEESGDFSYATSFPAPIVLGAAFNDALIRRVAEIISTEARAFSNSDHAGIDYWTPNVNPFKDPRWGRGQETPGEDPLHCSRYVKEFVGGLQGDDPEKPKVVATCKHLAAYDLEEWGGVSRFEFDAKVSAVDLLEYYLPPFKTCAVDASVGAFMCSYNALNGVPACADRYLLQTVLREHWGWEGPGHWVTGDCGAVERIQTYHHYVESGPEAAAAALNAGVDLDCGTWLPSYLGEAERQGLISNETLDAALTRLYTSLVQLGYFDPAEGQPLRSLGWDDVATSEAEELAKTVAIQGTVLLKNIDWTLPLKANGTLALIGPFINFTTELQSNYAGPAKHIPTMIEAAERLGYNVLTAPGTEVNSTSTDGFDDALAIAAEADALIFFGGIDNTVEEESLDRTRIDWPGNQEELILELAELGRPLTVVQFGGGQVDDSALLASAGVGAIVWAGYPSQAGGAGVFDVLTGKAAPAGRLPITQYPKSYVDEVPMTDMNLQPGTDNPGRTYRWYEDAVLPFGFGLHYTTFNVSWAKKAFGPYDAATLARGKNPSSNIVDTFSLAVTNTGDVASDYVALVFASAPELGAQPAPIKTLVGYSRASLIKPGETRKVDVEVTVAPLTRATEDGRVVLYPGEYTLLVDVNDEYPTAKFEIKGDVQVLEKFPLSGNDSD

Key:
[1] = test system: T1, O=[N+]([O-])c1ccc(O[C@@H]2OC[C@@H](O)[C@H](O)[C@H]2O)cc1; assay: purified protein; format: biochemical, Aspergillus nidulans; settings: 0.05 M ammonium acetate pH 5.0, 60 °C, 1–20 mM substrate
T1 construct: homologous secreted expression in A. nidulans A773 (pEXPYR, glaA promoter, A. niger glucoamylase signal peptide); purified by DEAE and Superdex 200; N-glycosylated at N63, N340, N408, N419, N458, N621, N760

[2] = Michaelis-Menten kinetics, purified enzyme, pH 5.0, 60 °C; settings: glycan lost; control: BxlBwt
[3] = western blot of crude extracellular extract, polyclonal anti-BxlB; settings: glycan lost; control: BxlBwt
[4] = CD thermal melt, 20-100 °C; settings: glycan lost; control: BxlBwt
[5] = far-UV CD secondary structure; settings: glycan lost; control: BxlBwt

Molecule	Km [1] [mM]	Vmax [1] [µmol/min/mg]	kcat [1] [s⁻¹]	kcat/Km [1] [M⁻¹ s⁻¹]	enzymatic_activity, kcat_Km [2]	expression_or_secretion [3]	stability_or_folding, Tm [4]	structure_or_conformation [5]
BxlB^wt (GH3 β-xylosidase BxlB) (Aspergillus nidulans FGSC A4; N340Q/N408Q/N419Q/N458Q/N621Q/N63Q)	3.19 ± 0.22	3.42	4.37	1270	–	–	–	–
BxlB^wt (GH3 β-xylosidase BxlB) (Aspergillus nidulans FGSC A4; N340Q/N408Q/N419Q/N621Q/N63Q/N760Q)	2.71 ± 0.21	6.08	3.71	–	–	–	–	–
BxlB^wt (GH3 β-xylosidase BxlB) (Aspergillus nidulans FGSC A4; N340Q/N408Q/N419Q/N621Q/N63Q)	2.81 ± 0.11	20.5	28	9940	–	–	–	–
BxlB^wt (GH3 β-xylosidase BxlB) (Aspergillus nidulans FGSC A4; N340Q/N408Q/N419Q/N458Q/N621Q)	9.92 ± 1.05	4.12	5.64	570	–	–	–	–
BxlB^wt (GH3 β-xylosidase BxlB) (Aspergillus nidulans FGSC A4; N340Q/N408Q/N419Q/N458Q/N621Q/N63Q/N760Q)	2.36 ± 0.11	10.1	13.9	5870	–	–	–	–
BxlB^wt (GH3 β-xylosidase BxlB) (Aspergillus nidulans FGSC A4; N340Q/N408Q/N419Q/N621Q)	2.49 ± 0.43	17.3	23.7	9510	–	–	–	–
BxlB^wt (GH3 β-xylosidase BxlB) (Aspergillus nidulans FGSC A4; N340Q/N408Q/N419Q/N621Q/N760Q)	2.91 ± 0.18	21.9	30.1	10300	–	–	–	–
B1	–	–	–	–	decreases, 1.27 vs 6.34	decreases	decreases	no change
B2	–	–	–	–	increases, 9.94 vs 6.34	decreases	decreases, 55.1 vs 63.8	no change
B3	–	–	–	–	increases, 10.33 vs 6.34	decreases	decreases, 61.1 vs 63.8	no change
B4	–	–	–	–	decreases, 0.57 vs 6.34	decreases	decreases	no change
B5	–	–	–	–	decreases, 5.87 vs 6.34, BxlBnon-glyc catalytic efficiency was reduced by 7%	decreases	–	no change
